Consider nine sequences from the DeepSol protein solubility set.

This series can be described thus: soluble on expression in E. coli; label from the status in PepcDB or PDB records.
In the case of “MSNGQLVSQVTVGHDKPLDREKVCPMLLRVFVANNRHNPMSEYNSRNGGSVPPSELQMHTWMDCSLRELTSLIKEVNPDARRKGTTFDFAIVQADRGSPRYILRDVGNTTNGERGIDDNKTLQQCKFEVGDFVDVAISLPSQGRRFNNREQGDRFDHRQRQRSPIR”, the “soluble on expression in E. coli” value is on record as “not soluble”.

As for “MSNILFKPTHLPISKPFHALLANILSEHQAKSEVQATSKEVVMNFRDSSYSAEDGGFHPVEIALSQSSDGQWCIEYITDFAYVGNHFPELERCLDFDFQRGDFFTAYHGWNPIVGNRDARELYQLWESNFLAYVATEAFDDISLTSAP”, the “soluble on expression in E. coli” value was “soluble”.

In the case of “MSNIPKELKYTKSHEWVKIDGDEVTVGITAHAQSLLGDLVYVELPEIGKEFAAGDDSCVVESVKAASDVYAPVDGEVIEINEALVDDPSRVNHTPYKDGWLFKLKISDESQLADLLTADAYAKTLED”, the “soluble on expression in E. coli” value was “not soluble”.

For “MSNLIELALRNAALDRTKLLSQVQKIEFLNGYDPRFVEGLISLEMIGDIDEYVASLMYVKMTDKYTQEEKEQLTDTILTINNDRLISCQYRFPQLYQKLMQDQFLSTFFSSSHLLPNIAPGTNNQSYETVSTNNKMKMESAKLYGHYEYYQCVVALITQIDGSRYFYHLNPNRIFGDYMGSAPLKLSGSELKDVKDITFILHPRSMVDYREFQRLQERNIVFKTVMLPVGAKSVSLSYDTDKDVLTVNNLEAGQTVTYNNLLQTPQYNRYQYTPEQYFMTQLYRGQTWAEALGEALDKYIVTRQEGATWWDLKPLFFNRKTTKNNMIAAARIKKEIEAGATSFDFTGVSRNGLLNQLLTTAVDYQLEYQRGLQNGVLSAEDLTTSAALR”, the “soluble on expression in E. coli” value was “not soluble”.

For “MSNLNNLTSKILNDAEEKKKYILADAEAQKDKIISKKTNRAEADKEEIITKANIEAEVKKARIISNAKLSVRNDMLRAKQDVISKVFNEAIEKLQNLSNGDYKYYVISTLDSLELEGTEVIIINEKDKDIFSNEFLEALNKELESKGKKGSITLNMEGKFNGGFILDRNGIQINNTFEALINSLRGELEFEVNKVLFDLEHHHHHH”, the “soluble on expression in E. coli” value is recorded as “soluble”.

“MSNNDCISTDKVDLDKKQIKKFLKQINISQLTKMIQFIDNKLLSDWDFNCLTYFDESEYPFFDINLSLICTIDHNIPINIIINFLCFVEKQYNNVPYHNTIHATMVTQKFFCLAKKLGIYDDLEYKIKLVMFISGICHDIGHPGYNNLFFVNSLHPLSIIYNDISVLENYHASITFKILQLNQCNILKNFSEKDFRMMRSYIIELILSTDMKHHFEIISKFRIRRENEDFDYIKNSDDLLILTKMIIKSADISHGSVSWSEHYCWCQRVLSEFYTQGDEELKNKMPLSPLCDRTKHNEVCKSQITFLKFVVMPLFEELSHIDNNKFIKSFCLKRLNSNCIMWDTLMKEEKTIE”: the “soluble on expression in E. coli” value is “soluble”.

On to “MSNPVTITEAAALHIKDMMKEHEEENAFLRVGVKGGGCSGLSYGMGFEHEKSESDSVFDQHGITVLVDKESLDIMNGTVIDYKQSMLGGGFTIDNPNAIASCGCGSSFRTATNAGKPEEC”, for which the “soluble on expression in E. coli” value is “soluble”.

As for “MSNRNLRSSTNSDLAEGQHQTPSSDSSGHGEDQPQASPGPNKKSHTPKKNISKGAVLHEKPMTVMVLTATEPFNYKEGKENMFHATVATESQYYRVKVFNMDLKEKFTENKFITISKYFNSSGILEINETATVSEAAPNQMFEVPKNIIRSAKETLKISKIKELDSGTLIYGVFAVEKKKVNDKSITFKIKDNEDNIKVVWDKEQHNINYEKGDKLQLFSFHLRKGNGKPILHSGNHSFIKGEKLLKESFEGDGYHKGPKQVVALKATKLFTYDSIKSKKMFHATVATDTEFFRVMVFEENLEKKFIPGNTIALSDYFGMYGSLAIHEYSSVSEVKSQNKEDSSSSDERPIEHLKICDLHLQTKERLVDGEFKVYRKSSGNNCICYGIWDDTGAMKVVVSGQLTSVNCEIGNTIRLVCFELTSNADEWFLRATRYSYMEVIMPEK”, the “soluble on expression in E. coli” value is recorded as “soluble”.

As for “MSNSAQRDARNSRDESARASDTDRIQIAQLLAYAAEQGRLQLTDYEDRLARAYAATTYQELDRLRADLPGAAIGPRRGGECNPAPSTLLLALLGGFERRGRWNVPKKLTTFTLWGSGVLDLRYADFTSTEVDIRAYSIMGAQTILLPPEVNVEIHGHRVMGGFDRKVVGEGTRGVPTVRIRGFSLWGDVGIKRKPRKPRK”, the “soluble on expression in E. coli” value was “not soluble”.
